pKd: −log10 of the molar value.
Experiments:
[1] = target: Recombinant C3d (human C3 residues 974-1265, C1010A, with N-terminal G-S-R-S-T) (human) (UniProt P01024); assay: ITC at 25 C, Efb-C titrated into recombinant C3d
[2] = target: Recombinant C3d (human C3 residues 974-1265, C1010A, with N-terminal G-S-R-S-T) (human) (UniProt P01024); assay: ITC (Example 3, FIG. 17), Efb-C titrated into recombinant C3d
[3] = target: Recombinant C3d (human C3 residues 974-1265, C1010A, with N-terminal G-S-R-S-T) (human) (UniProt P01024); assay: ITC at 25 C, Efb-C titrated into recombinant C3d, single-site model
[4] = target: Recombinant C3d (human C3 residues 974-1265, C1010A, with N-terminal G-S-R-S-T) (human) (UniProt P01024); assay: isothermal titration calorimetry, Efb-C titrated into recombinant C3d
[5] = target: Recombinant C3d (human C3 residues 974-1265, C1010A, with N-terminal G-S-R-S-T) (human) (UniProt P01024); assay: ITC at 25 C, Efb titrated into recombinant C3d
[6] = target: Recombinant C3d (human C3 residues 974-1265, C1010A, with N-terminal G-S-R-S-T) (human) (UniProt P01024); assay: ITC (Example 3, FIG. 17), Efb titrated into recombinant C3d
[7] = target: Recombinant C3d (human C3 residues 974-1265, C1010A, with N-terminal G-S-R-S-T) (human) (UniProt P01024); assay: ITC at 25 C, Efb titrated into recombinant C3d, single-site model
[8] = target: Recombinant C3d (human C3 residues 974-1265, C1010A, with N-terminal G-S-R-S-T) (human) (UniProt P01024); assay: isothermal titration calorimetry, Efb titrated into recombinant C3d
[9] = target: Recombinant C3d (human C3 residues 974-1265, C1010A, with N-terminal G-S-R-S-T) (human) (UniProt P01024); assay: ITC, model of two non-equivalent sites
[10] = target: Recombinant C3d (human C3 residues 974-1265, C1010A, with N-terminal G-S-R-S-T) (human) (UniProt P01024); assay: ITC, Ehp titrated into recombinant C3d, model of two non-equivalent sites, first site
[11] = target: Recombinant C3d (human C3 residues 974-1265, C1010A, with N-terminal G-S-R-S-T) (human) (UniProt P01024); assay: isothermal titration calorimetry, Ehp titrated into recombinant C3d; first site
[12] = target: Recombinant C3d (human C3 residues 974-1265, C1010A, with N-terminal G-S-R-S-T) (human) (UniProt P01024); assay: ITC, Ehp titrated into recombinant C3d, model of two non-equivalent sites, second site
[13] = target: Recombinant C3d (human C3 residues 974-1265, C1010A, with N-terminal G-S-R-S-T) (human) (UniProt P01024); assay: isothermal titration calorimetry, Ehp titrated into recombinant C3d; second site
[14] = target: Recombinant C3d (human C3 residues 974-1265, C1010A, with N-terminal G-S-R-S-T) (human) (UniProt P01024); assay: isothermal titration calorimetry, Ehp titrated into recombinant C3d; first site of a model with two non-equivalent sites
[15] = target: Recombinant C3d (human C3 residues 974-1265, C1010A, with N-terminal G-S-R-S-T) (human) (UniProt P01024); assay: isothermal titration calorimetry, Ehp titrated into recombinant C3d; second site of a model with two non-equivalent sites

Sequence of Recombinant C3d (human C3 residues 974-1265, C1010A, with N-terminal G-S-R-S-T) (human) (P01024 other isoform, or with tags, fused parts or gaps C1010A C1010A limits assumed, form in doubt): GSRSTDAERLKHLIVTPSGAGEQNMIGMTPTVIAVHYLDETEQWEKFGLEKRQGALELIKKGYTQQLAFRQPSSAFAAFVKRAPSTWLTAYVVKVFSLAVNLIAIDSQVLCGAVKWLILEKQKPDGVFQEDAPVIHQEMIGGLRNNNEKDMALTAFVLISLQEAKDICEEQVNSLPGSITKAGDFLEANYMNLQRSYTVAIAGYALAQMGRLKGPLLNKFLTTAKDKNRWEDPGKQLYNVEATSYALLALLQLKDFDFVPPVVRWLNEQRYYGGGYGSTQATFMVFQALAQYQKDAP

Efb-C, C-terminal C3-binding domain of Efb from S. aureus strain Mu50 (from UniProt P0C6P2 94-165)
enthalpy of binding (ΔH) [1]: -8.5 kcal/mol | pKd [2]: 8.70 | pKd [3]: 8.70 | N [4]: 1

Extracellular fibrinogen-binding protein (Efb), recombinant full-length, S. aureus strain Mu50 (from UniProt P0C6P2 29-165)
enthalpy of binding (ΔH) [5]: -9 kcal/mol | pKd [6]: 8.70 | pKd [7]: 8.70 | pKd [8]: 8.40 | N [8]: 1 | ΔH [8]: -9.1 kcal/mol

SAV1155/Ehp (Efb Homologous Protein), recombinant mature form, S. aureus strain Mu50
change in ΔG between the first and second sites [9]: 3 kcal/mol | unfavorable change in enthalpy release between the first and second sites [9]: 27 kcal/mol | pKd [10]: 9.70 | N [11]: 0.5 | ΔH [11]: -21.1 kcal/mol | pKd [12]: 7.48 | N [13]: 0.5 | ΔH [13]: 5.7 kcal/mol | pKd [14]: 9.70 | pKd [15]: 7.48
